# Article PMC9396414, “An antagonistic monoclonal anti–Plexin-B1 antibody exerts therapeutic effects in mouse models of postmenopausal osteoporosis and multiple sclerosis” (The Journal of Biological Chemistry, 2022)
# T1: human Sema4D (semaphorin 4D) (human, UniProt Q92854 22-734)
# T1 construct: Semaphorin 4D (Sema4D, CD100), human, recombinant protein bought from R&D Systems, cat. no; 7470-S4; check against the vendor's data sheet; also called CD100; source: bought: R&D (7470-S4)
# T1 sequence (looked up): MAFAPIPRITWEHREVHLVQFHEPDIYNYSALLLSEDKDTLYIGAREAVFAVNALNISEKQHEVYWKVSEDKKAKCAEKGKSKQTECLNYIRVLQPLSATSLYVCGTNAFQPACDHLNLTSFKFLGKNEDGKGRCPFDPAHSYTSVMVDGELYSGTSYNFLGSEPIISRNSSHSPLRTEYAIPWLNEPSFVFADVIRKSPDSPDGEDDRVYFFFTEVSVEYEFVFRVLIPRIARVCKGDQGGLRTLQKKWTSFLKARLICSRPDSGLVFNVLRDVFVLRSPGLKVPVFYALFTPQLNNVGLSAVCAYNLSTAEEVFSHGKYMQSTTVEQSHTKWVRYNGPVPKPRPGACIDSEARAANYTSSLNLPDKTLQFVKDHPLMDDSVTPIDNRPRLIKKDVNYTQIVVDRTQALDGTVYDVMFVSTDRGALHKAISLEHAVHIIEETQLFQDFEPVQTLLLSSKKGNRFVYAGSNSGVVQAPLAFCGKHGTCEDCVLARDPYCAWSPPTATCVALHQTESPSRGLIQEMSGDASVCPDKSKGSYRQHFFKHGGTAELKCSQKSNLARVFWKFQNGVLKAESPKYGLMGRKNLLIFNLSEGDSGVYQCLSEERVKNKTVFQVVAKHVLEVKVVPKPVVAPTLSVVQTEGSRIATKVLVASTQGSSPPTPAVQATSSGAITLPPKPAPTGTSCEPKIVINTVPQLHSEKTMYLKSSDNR
# B1: biotinylated human Plexin-B1 (20–535)-Avi-6xHis (domain or fragment, UniProt O43157 20-535, looked up)
# chain: LQPLPPTAFTPNGTYLQHLARDPTSGTLYLGATNFLFQLSPGLQLEATVSTGPVLDSRDCLPPVMPDECPQAQPTNNPNQLLLVSPGALVVCGSVHQGVCEQRRLGQLEQLLLRPERPGDTQYVAANDPAVSTVGLVAQGLAGEPLLFVGRGYTSRGVGGGIPPITTRALWPPDPQAAFSYEETAKLAVGRLSEYSHHFVSAFARGASAYFLFLRRDLQAQSRAFRAYVSRVCLRDQHYYSYVELPLACEGGRYGLIQAAAVATSREVAHGEVLFAAFSSAAPPTVGRPPSAAAGASGASALCAFPLDEVDRLANRTRDACYTREGRAEDGTEVAYIEYDVNSDCAQLPVDTLDAYPCGSDHTPSPMASRVPLEATPILEWPGIQLTAVAVTMEDGHTIAFLGDSQGQLHRVYLGPGSDGHPYSTQSIQQGSAVSRDLTFDGTFEHLYVMTQSTLLKVPVASCAQHLDCASCLAHRDPYCGWCVLLGRCSRRSECSRGQGPEQWLWSFQPELGCLQ
# modifications: biotin on the Avi-tag (in vitro, BirA enzyme)
# notes: Plexin-B1, human, extracellular region residues 20-535; cloned as fragment 1-535 and secreted as 20-535; the Avi-tag stands between the C-terminus of the fragment and the 6xHis tag; The SPR experiments with the antibodies used the form without the Avi-tag, Plexin-B1 (20–535)-6xHis; The cell assays used full-length human Plexin-B1-FLAG (GenScript, pcDNA3.1); also called human recombinant Plexin-B1 …
# Target: T1, human Sema4D (semaphorin 4D)
# Test: BLI; OctetRED384; 5 μg/ml biotinylated human Plexin-B1 (20–535)-Avi-6xHis captured on an SA biosensor in 1xKinetics buffer; then 50 nM antibody or buffer, then 50 nM human Sema4D; qualitative analysis of association curves
# Conditions: both partners purified
binder,measurement,value
B1,binding result,binds
